Measurements: article PMC2978359

Legend:
MBD of MeCP2 (wild type) [1] = biological target: T1, MBD of MeCP2 (wild type) (human/mouse (residues 76-167 identical), UniProt P51608 76-167); assay: EMSA
MBD of MeCP2 (wild type) [2] = biological target: T1, MBD of MeCP2 (wild type); assay: EMSA/T4 endonuclease V
MBD of MeCP2 (wild type) [3] = biological target: T1, MBD of MeCP2 (wild type); assay: EMSA; remark: listed apart in the source
MBD of MeCP2 (wild type) [4] = biological target: T1, MBD of MeCP2 (wild type); assay: EMSA/T4 endonuclease V; remark: listed apart in the source
MBD of MeCP2 (wild type) [5] = biological target: T1, MBD of MeCP2 (wild type); assay: EMSA; remark: listed apart in the source

T1 sequence (P51608 76-167): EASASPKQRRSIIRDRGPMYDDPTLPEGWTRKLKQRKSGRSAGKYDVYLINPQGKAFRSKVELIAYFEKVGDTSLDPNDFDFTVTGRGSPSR

B1: CmCG•mCGG duplex (BDNF promoter III) (dsDNA)
DNA 1: TAGAAGAATTCCGTTCCAGA
DNA 2: TCTGGAACGGAATTCTTCTA
modifications: 5-methyl-dC at strand 1 pos 12 and strand 2 pos 8
Binder B1 has a Kd (MBD of MeCP2 (wild type) [1]) of 12.5 ± 3.5 nM and a Kd (MBD of MeCP2 (wild type) [2]) of 46 ± 26 nM.

B2: CmCG•mCGG in AT tract (dsDNA)
DNA 1: TTATTTTTATCCGTTTTTAATTAT
DNA 2: ATAATTAAAAACGGATAAAAATAA
modifications: 5-methyl-dC at strand 1 pos 12 and strand 2 pos 12
With B2 the Kd (MBD of MeCP2 (wild type) [3]) was roughly 15 nM.

B3: C=mCG•mCGG CPD duplex (dsDNA)
DNA 1: TAGAAGAATTCCGTTCCAGA
DNA 2: TCTGGAACGGAATTCTTCTA
modifications: 5-methyl-dC at strand 1 pos 12 and strand 2 pos 8; cis-syn CPD between C11 and mC12
B3 was tested, and the Kd (MBD of MeCP2 (wild type) [4]) was 11 ± 3 nM.

B4: CTG•mCGG single-mismatch duplex (dsDNA)
DNA 1: TAGAAGAATTCTGTTCCAGA
DNA 2: TCTGGAACGGAATTCTTCTA
modifications: 5-methyl-dC at strand 2 pos 8
Binder B4 has a Kd (MBD of MeCP2 (wild type) [5]) of 66 ± 22 nM.

B5: TmCG•mCGA duplex (dsDNA)
DNA 1: TAGAAGAATTTCGTTCCAGA
DNA 2: TCTGGAACGAAATTCTTCTA
modifications: 5-methyl-dC at strand 1 pos 12 and strand 2 pos 8
B5 showed a Kd (MBD of MeCP2 (wild type) [5]) of 35 ± 9 nM and a Kd (MBD of MeCP2 (wild type) [2]) of 75 ± 35 nM.

B6: T=TmCG•mCGAA CPD duplex (dsDNA)
DNA 1: TAGAAGAATTTCGTTCCAGA
DNA 2: TCTGGAACGAAATTCTTCTA
modifications: 5-methyl-dC at strand 1 pos 12 and strand 2 pos 8; cis-syn CPD between T10 and T11
With B6 the Kd (MBD of MeCP2 (wild type) [4]) was 13 ± 3 nM.

B7: T=TTmCG•mCGAAA CPD duplex (dsDNA)
DNA 1: TAGAAGAATTTCGTTCCAGA
DNA 2: TCTGGAACGAAATTCTTCTA
modifications: 5-methyl-dC at strand 1 pos 12 and strand 2 pos 8; cis-syn CPD between T9 and T10
In the case of B7, the Kd (MBD of MeCP2 (wild type) [4]) is reported as 47 ± 14 nM.
